Reference: patent US9976134B2, “Thermolysin variants” (Danisco US Inc., priority 2007, dated 2018)

Legend:
[1] = TIDE 2X 0.78 g/l, 6 gpg, pH 8.2, 30 min at 20°C, A405; variant vs wild-type thermolysin at same protein concentration
Protocol: Thermolysin containing protease samples were obtained from filtered broth of cultures grown in microtiter plates for 3 days at 37° C. with shaking at 280 rpm under humidified aeration.
• Thermolysin containing culture supernatants (˜100-200 μg protein per ml) • TIDE® 2× (nil enzymes) detergent (P&G) • Dilution Buffer (10 mM NaCl, 0.1 mM CaCl2, 0.005% TWEEN®-80) The equipment used was a Biomek FX Robot (Beckman Coulter), a SpectraMAX MTP Reader (type 340; Molecular Devices), and an iEMS incubator/shaker (Thermo/Labsystems). MTPs were obtained from Costar (type 9017). TIDE® 2× Liquid Detergent Preparation (US Conditions):
Milli-Q water was adjusted to 6 gpg water hardness using a (Ca/Mg 3:1) hardness stock solution (282.3 g/L CaCl2.2H20, 130.1 g/L MgCl2.6H2O), 0.78 g/1 detergent TIDE® 2× was added, and the detergent solution was stirred vigorously for at least 15 minutes. Then, 5 mM HEPES was added and the pH adjusted to 8.2.
Microswatches of ¼ inch circular diameter were obtained from CFT (Vlaardingen, The Netherlands).
Two microswatches were placed vertically into each well of a 96-well microtiter plate to expose the whole surface area (i.e., not flat on the bottom of the well).
The incubator was set to 20° C. The filtered culture broth samples were tested at an appropriate concentration by dilution with a mixture of 10 mM NaCl, 0.1 mM CaCl2, 0.005% TWEEN®-80 solution. The detergent solution was prepared as described above. Then, 190 μl of detergent solution were added to each well of the MTP, containing microswatches. To this mixture, 10 μl of diluted enzyme solution were added to each well (to provide a total volume of 200 μl/well). The MTP was covered with a plate seal and placed in an incubator for 30 minutes at 20° C., with agitation at 1400 rpm (iEMS incubator). Following incubation under the appropriate conditions, 100 μl of solution from each well was removed and placed into a new MTP. Subsequently this MTP, containing 100 μl of solution/well, was read at 405 nm in a MTP-Reader. Blank controls, containing 2 microswatches/well and detergent, without the addition of thermolysin containing samples, were also included in the test.
The observed absorbance value was corrected for the blank value (obtained after incubation of microswatches in the absence of added enzyme). The resulting absorbance was a measure for the hydrolytic activity. For each sample (thermolysin or a variant) the performance index (PI) was calculated. The performance index is a comparison of the performance of the variant (actual value) and the standard thermolysin enzyme (theoretical value) at the same protein concentration. In addition, the theoretical values were calculated, using the parameters of the Langmuir equation of the standard enzyme.
C. Stability Assay in the Presence of Detergent
In this example, experiments were conducted to determine the stain removal performance of various singly substituted thermolysin (also referred to herein as Proteinase-T or PrT) variants. As described in Example 1, the stain cleaning performance of thermolysin variants was done utilizing a blood/milk/ink (BMI) microswatch assay. Briefly the cleaning performance of chosen single-substitution thermolysin variants was assessed in a TIDE® 2× microswatch assay.

[2] = Stability assay in 25% TIDE 2X detergent with DTPA (residual Abz-AGLA-Nba protease activity); type: physicochemical; conditions: 60 min at 32°C; variant residual AGLA activity divided by wild-type residual activity
Method in brief: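 Thermolysin variant culture supernatants stressed in TIDE 2× detergent, with or without DTPA: 60 min at 32° C or 180 min at 50° C. Residual versus unstressed activity on Abz-AGLA-Nba read kinetically at 25° C (Ex 350/Em 420). Performance index is variant residual activity divided by wild-type thermolysin residual activity.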

Molecule | PI (performance index), stain removal [1] | PI (relative stability), 25% TIDE 2X with DTPA [2]
Y151D: single-substitution thermolysin variant (SEQ ID NO:3 numbering) (protein, listed as Geobacillus caldoproteolyticus) ITGTSTVGVGRGVLGDQKNINTTYSTYYYLQDNTRGNGIFTYDAKYRTTLPGSLWADADNQFFASYDAPAVDAHYYAGVTYDYYKNVHNRLSYDGNNAAIRSSVHYSQGYNNAFWNGSQMVYGDGDGQTFIPLSGGIDVVAHELTHAVTDDTAGLIYQNESGAINEAISDIFGTLVEFYANKNPDWEIGEDVYTPGISGDSLRSMSDPAKYGDPDHYSKRYTGTQDNGGVHINSGIINKAAYLISQGGTHYGVSVVGIGRDKLGKIFYRALTQYLTPTSNFSQLRAAAVQSATDLYGSTSQEVASVKQAFDAVGVK | 1.08 | 1.12
Y151V: single-substitution thermolysin variant (SEQ ID NO:3 numbering) (protein, listed as Geobacillus caldoproteolyticus) ITGTSTVGVGRGVLGDQKNINTTYSTYYYLQDNTRGNGIFTYDAKYRTTLPGSLWADADNQFFASYDAPAVDAHYYAGVTYDYYKNVHNRLSYDGNNAAIRSSVHYSQGYNNAFWNGSQMVYGDGDGQTFIPLSGGIDVVAHELTHAVTDVTAGLIYQNESGAINEAISDIFGTLVEFYANKNPDWEIGEDVYTPGISGDSLRSMSDPAKYGDPDHYSKRYTGTQDNGGVHINSGIINKAAYLISQGGTHYGVSVVGIGRDKLGKIFYRALTQYLTPTSNFSQLRAAAVQSATDLYGSTSQEVASVKQAFDAVGVK | 1.25 | 1.11
I156M: single-substitution thermolysin variant (SEQ ID NO:3 numbering) (protein, listed as Geobacillus caldoproteolyticus) ITGTSTVGVGRGVLGDQKNINTTYSTYYYLQDNTRGNGIFTYDAKYRTTLPGSLWADADNQFFASYDAPAVDAHYYAGVTYDYYKNVHNRLSYDGNNAAIRSSVHYSQGYNNAFWNGSQMVYGDGDGQTFIPLSGGIDVVAHELTHAVTDYTAGLMYQNESGAINEAISDIFGTLVEFYANKNPDWEIGEDVYTPGISGDSLRSMSDPAKYGDPDHYSKRYTGTQDNGGVHINSGIINKAAYLISQGGTHYGVSVVGIGRDKLGKIFYRALTQYLTPTSNFSQLRAAAVQSATDLYGSTSQEVASVKQAFDAVGVK | 1.11 | 1.19
Y151Q: single-substitution thermolysin variant (SEQ ID NO:3 numbering) (protein, listed as Geobacillus caldoproteolyticus) ITGTSTVGVGRGVLGDQKNINTTYSTYYYLQDNTRGNGIFTYDAKYRTTLPGSLWADADNQFFASYDAPAVDAHYYAGVTYDYYKNVHNRLSYDGNNAAIRSSVHYSQGYNNAFWNGSQMVYGDGDGQTFIPLSGGIDVVAHELTHAVTDQTAGLIYQNESGAINEAISDIFGTLVEFYANKNPDWEIGEDVYTPGISGDSLRSMSDPAKYGDPDHYSKRYTGTQDNGGVHINSGIINKAAYLISQGGTHYGVSVVGIGRDKLGKIFYRALTQYLTPTSNFSQLRAAAVQSATDLYGSTSQEVASVKQAFDAVGVK | 1.29 | 1.03
Y151W: single-substitution thermolysin variant (SEQ ID NO:3 numbering) (protein, listed as Geobacillus caldoproteolyticus) ITGTSTVGVGRGVLGDQKNINTTYSTYYYLQDNTRGNGIFTYDAKYRTTLPGSLWADADNQFFASYDAPAVDAHYYAGVTYDYYKNVHNRLSYDGNNAAIRSSVHYSQGYNNAFWNGSQMVYGDGDGQTFIPLSGGIDVVAHELTHAVTDWTAGLIYQNESGAINEAISDIFGTLVEFYANKNPDWEIGEDVYTPGISGDSLRSMSDPAKYGDPDHYSKRYTGTQDNGGVHINSGIINKAAYLISQGGTHYGVSVVGIGRDKLGKIFYRALTQYLTPTSNFSQLRAAAVQSATDLYGSTSQEVASVKQAFDAVGVK | 1.22 | 1.02
T049I: single-substitution thermolysin variant (SEQ ID NO:3 numbering) (protein, listed as Geobacillus caldoproteolyticus) ITGTSTVGVGRGVLGDQKNINTTYSTYYYLQDNTRGNGIFTYDAKYRTILPGSLWADADNQFFASYDAPAVDAHYYAGVTYDYYKNVHNRLSYDGNNAAIRSSVHYSQGYNNAFWNGSQMVYGDGDGQTFIPLSGGIDVVAHELTHAVTDYTAGLIYQNESGAINEAISDIFGTLVEFYANKNPDWEIGEDVYTPGISGDSLRSMSDPAKYGDPDHYSKRYTGTQDNGGVHINSGIINKAAYLISQGGTHYGVSVVGIGRDKLGKIFYRALTQYLTPTSNFSQLRAAAVQSATDLYGSTSQEVASVKQAFDAVGVK | 1.24 | 1.01
Y151H: single-substitution thermolysin variant (SEQ ID NO:3 numbering) (protein, listed as Geobacillus caldoproteolyticus) ITGTSTVGVGRGVLGDQKNINTTYSTYYYLQDNTRGNGIFTYDAKYRTTLPGSLWADADNQFFASYDAPAVDAHYYAGVTYDYYKNVHNRLSYDGNNAAIRSSVHYSQGYNNAFWNGSQMVYGDGDGQTFIPLSGGIDVVAHELTHAVTDHTAGLIYQNESGAINEAISDIFGTLVEFYANKNPDWEIGEDVYTPGISGDSLRSMSDPAKYGDPDHYSKRYTGTQDNGGVHINSGIINKAAYLISQGGTHYGVSVVGIGRDKLGKIFYRALTQYLTPTSNFSQLRAAAVQSATDLYGSTSQEVASVKQAFDAVGVK | 1.17 | 1.11
Y151E: single-substitution thermolysin variant (SEQ ID NO:3 numbering) (protein, listed as Geobacillus caldoproteolyticus) ITGTSTVGVGRGVLGDQKNINTTYSTYYYLQDNTRGNGIFTYDAKYRTTLPGSLWADADNQFFASYDAPAVDAHYYAGVTYDYYKNVHNRLSYDGNNAAIRSSVHYSQGYNNAFWNGSQMVYGDGDGQTFIPLSGGIDVVAHELTHAVTDETAGLIYQNESGAINEAISDIFGTLVEFYANKNPDWEIGEDVYTPGISGDSLRSMSDPAKYGDPDHYSKRYTGTQDNGGVHINSGIINKAAYLISQGGTHYGVSVVGIGRDKLGKIFYRALTQYLTPTSNFSQLRAAAVQSATDLYGSTSQEVASVKQAFDAVGVK | 1.11 | 1.10
Y151M: single-substitution thermolysin variant (SEQ ID NO:3 numbering) (protein, listed as Geobacillus caldoproteolyticus) ITGTSTVGVGRGVLGDQKNINTTYSTYYYLQDNTRGNGIFTYDAKYRTTLPGSLWADADNQFFASYDAPAVDAHYYAGVTYDYYKNVHNRLSYDGNNAAIRSSVHYSQGYNNAFWNGSQMVYGDGDGQTFIPLSGGIDVVAHELTHAVTDMTAGLIYQNESGAINEAISDIFGTLVEFYANKNPDWEIGEDVYTPGISGDSLRSMSDPAKYGDPDHYSKRYTGTQDNGGVHINSGIINKAAYLISQGGTHYGVSVVGIGRDKLGKIFYRALTQYLTPTSNFSQLRAAAVQSATDLYGSTSQEVASVKQAFDAVGVK | 1.06 | 1.09
Y151R: single-substitution thermolysin variant (SEQ ID NO:3 numbering) (protein, listed as Geobacillus caldoproteolyticus) ITGTSTVGVGRGVLGDQKNINTTYSTYYYLQDNTRGNGIFTYDAKYRTTLPGSLWADADNQFFASYDAPAVDAHYYAGVTYDYYKNVHNRLSYDGNNAAIRSSVHYSQGYNNAFWNGSQMVYGDGDGQTFIPLSGGIDVVAHELTHAVTDRTAGLIYQNESGAINEAISDIFGTLVEFYANKNPDWEIGEDVYTPGISGDSLRSMSDPAKYGDPDHYSKRYTGTQDNGGVHINSGIINKAAYLISQGGTHYGVSVVGIGRDKLGKIFYRALTQYLTPTSNFSQLRAAAVQSATDLYGSTSQEVASVKQAFDAVGVK | 1.75 | 1.26
